{
  "source": "patent US10898548B2",
  "about": "“Modulators of protein tyrosine phosphatase and uses thereof” (LEUVAS THERAPEUTICS, priority 2015, dated 2021)",
  "test": "body weight as a measure of toxicity",
  "format": "in vivo, mouse",
  "conditions": "Wild-type and Hbb^3th/+ mice; 5 mg/kg i.p once every other day for 3 weeks",
  "method": "Wild-type and Hbb^3th/+ were treated with TAT-ICD at 5 mg/kg i.p once every other day for 3 weeks. […] Hematological parameters, red blood cell indices and reticulocyte counts were determined using standard procedures. Table 37 summarizes the effect of treatment of WT and HBB mice with TAT-ICD9 on key hematological parameters and red cell indices.",
  "data": [
    {"substance": "TAT-ICD: fusion recombinant protein SEQ ID 5: PTPRG intracellular domain aa 797-1445 fused to 13 aa TAT sequence", "values": [
      {"measurement": "body weight as a measure of toxicity", "value": "no changes were observed"}
    ]}
  ]
}
